pIC50: −log10 of the molar value.
Experiments:
[1] = Singlet oxygen quantum yield in DMF with DPBF as probe; assay type: physicochemical; settings: irradiation λ > 610 nm, relative to ZnPc (ΦΔ = 0.56 in DMF)
Text: The singlet oxygen generation efficiency of 1 was then studied and compared with that of 8, 14, and ZnPc in all these media using 1,3-diphenylisobenzofuran (DPBF) as the singlet oxygen probe.[67] The absorbance of DPBF’s absorption at 415 nm (in DMF) or 417 nm (in PBS and the buffer) was monitored during light irradiation (λ > 610 nm). Figures S4–S6 show the changes in the absorption spectra of the mixtures in DMF, PBS, and the buffer, respectively, upon irradiation. […] The singlet oxygen quantum yields (ΦΔ) were also determined in DMF. […]
where W and Iabs are the DPBF photobleaching rate and the rate of light absorption, […]
MMP-2 and Cathepsin B-Responsive Spectroscopic Studies
Compound 1 or 14 was dissolved in DMF to form a 1 mM stock solution, which was then diluted to 1 μM with PBS at pH 7.4 or buffer solution (pH 5.0, 25 mM NaOAc, 1 mM EDTA, 500 μM GSH), both in the presence of 0.1% Tween 80 (v/v) . For the MMP-2-responsive studies, the solutions in PBS were treated with MMP-2 (2 μg mL-1). For the cathepsin B-responsive studies, the solutions in buffer solution were treated with cathepsin B (1 unit mL-1). […]
All of the solutions were stirred continuously at 37 °C. The ir electronic absorption and fluorescence spectra were monitored over a period of 25 h. […]

[2] = system: A549 cells; test: Dark and photocytotoxicity (MTT); assay type: cell-based, human; settings: without light irradiation, up to 4 μM, all conditions (with or without inhibitors)
Protocol: (§1) The dark- and photocytotoxicity of 1 was also investigated against all four cell lines under the different conditions as described, using 14 as a negative control. […] Without light irradiation, both 1 and 14 were noncytotoxic up to 4 μM for all conditions. Upon light irradiation (λ > 610 nm, 23 mW cm^–2, 28 J cm^–2), both conjugates however could induce a different extent of cytotoxicity. […] The results could be attributed to the intrinsic difference in the MMP-2 levels in these cells. […] The photocytotoxicity was further reduced under the dual inhibition condition, for which the IC50 values (>4 μM) also could not be determined. […] The overall results generally followed the trend of intracellular ROS generation as reported above. […]
(§2) Approximately 2 × 10^4 cells per well (100 µL) in the corresponding medium were inoculated in 96-well plates and incubated overnight at 37 °C in a humidified 5% CO 2 atmosphere. A stock solution of 1 or 14 (1 mM) was prepared as described above, which was diluted with a serum-free medium to various concentrations. The cells, after being rinsed with PBS twice, were treated with or without SB -3CT (10 μM) and/or CA -074 Me (25 μM) in the medi um (100 μL) for 2 h. The cells were further incuba ted with 100 μL of different concentrations of 1 or 14 for 1 h at 37 °C under 5% CO2. After being rinsed with PBS twice, the cells were incubated in the culture medium (100 μL) for 6 h. The cells were then rinsed with PBS and re -fed with 100 μL of a serum-containing medium before being irradiated (λ > 610 nm, 23 mW cm –2, 28 J cm– 2) at ambient temperature. Cell viability was determined by means of a colorimetric MTT assay.R7 After irradiation, the cells were incubated at 37 °C under 5% CO 2 overnight. After incubation, the medium was removed and the cell s were rinsed with PBS twice. A MTT (S igma) solution in PBS (3 mg mL -1, 50 μL) was added to each well followed by incubation for 4 h under the same environment. DMSO (100 μL) was then added to each well. Solutions in all the wells were mixed until homogenous. The absorbance at 490 nm of each w ell on the plate was […]
(§3) taken by a microplate reader (Tecan Spark 10M) at ambient temperature. The average […]
(§4) of the other wells. The cell viability was then determined by the equation: […]
(§5) where Ai is the absorbance of the ith datum (i = 1, 2, …, n), Acontrol is the average absorbance of the control wells in which the compound was absent, and n (= 4) is the number of data points. […]

[3] = system: HEK-293 cells; test: Dark and photocytotoxicity (MTT); assay type: cell-based, human; settings: for dark cytotoxicity: without light irradiation, up to 4 μM, all conditions
Protocol: as §1, §2, §3, §4, §5

[4] = system: HeLa cells; test: Dark and photocytotoxicity (MTT); assay type: cell-based, human; settings: without light irradiation, up to 4 μM, all conditions
Protocol: as §1, §2, §3, §4, §5

[5] = system: U-87 MG cells; test: Dark and photocytotoxicity (MTT); assay type: cell-based, human; settings: without light irradiation, up to 4 μM, all conditions
Protocol: as §1, §2, §3, §4, §5

Row | SMILES | ΦΔ (singlet oxygen quantum yield) [1] | dark cytotoxicity [2] | pIC50 ([3]; no inhibitor, 1 h + 6 h, light λ > 610 nm, 23 mW cm-2, 28 J cm-2) | dark cytotoxicity [3] | dark cytotoxicity [4] | dark cytotoxicity [5]
1 | CCN(CC)c1ccc2nc3ccc(/N=N/c4ccc(N(C)CCCNC(=O)OC[C@@H]5[C@@H]6CCc7nnn(CC(=O)NCCCC[C@@H]8NC(=O)CNC(=O)[C@H](CCCCN)NC(=O)[C@H](CCCNC(=N)N)NC(=O)[C@H](C(C)C)NC(=O)CNC(=O)[C@H](CC(C)C)NC(=O)[C@@H]9CCCN9C(=O)[C@H](CCCCN)NC(=O)[C@@H](N)CSCc9cc(COc%10ccc(C%11=C%12C(C)=C(I)C(/C=C/c%13ccc(OCCOCCOCCOC)cc%13)=[N+]%12[B-](F)(F)n%12c(/C=C/c%13ccc(OCCOCCOCCOC)cc%13)c(I)c(C)c%12%11)cc%10)cc(c9)CSC[C@@H](C(N)=O)NC(=O)[C@H](CCCCN)NC(=O)[C@H](CCCCN)NC(=O)CNC(=O)[C@H](CC(C)C)NC(=O)[C@H](Cc9ccccc9)NC(=O)CNC(=O)[C@H](CCCCN)NC(=O)CNC8=O)c7CC[C@@H]65)cc4)cc3[n+](-c3ccccc3)c2c1 [compound 1] | 0.02 | noncytotoxic | < 5.40 | noncytotoxic | noncytotoxic | noncytotoxic
2 | CCN(CC)c1ccc2nc3ccc(/N=N/c4ccc(N(C)CCCNC(=O)OC[C@@H]5[C@@H]6CCc7nnn(CC(=O)NCCCC[C@@H]8NC(=O)CNC(=O)[C@H](CCCCN)NC(=O)CNC(=O)CNC(=O)CNC(=O)CNC(=O)CNC(=O)[C@H](CCCCN)NC(=O)[C@@H](N)CSCc9cc(COc%10ccc(C%11=C%12C(C)=C(I)C(/C=C/c%13ccc(OCCOCCOCCOC)cc%13)=[N+]%12[B-](F)(F)n%12c(/C=C/c%13ccc(OCCOCCOCCOC)cc%13)c(I)c(C)c%12%11)cc%10)cc(c9)CSC[C@@H](C(N)=O)NC(=O)[C@H](CCCCN)NC(=O)[C@H](CCCCN)NC(=O)CNC(=O)CNC(=O)CNC(=O)CNC(=O)[C@H](CCCCN)NC(=O)CNC8=O)c7CC[C@@H]65)cc4)cc3[n+](-c3ccccc3)c2c1 [compound 14] | 0.02 | noncytotoxic | – | noncytotoxic | noncytotoxic | noncytotoxic
